In patent US20260209386A1 (MYTHIC THERAPEUTICS, published 2026):

T1: Human PTK7 (human, UniProt Q13308 31-1070)
T1 sequence: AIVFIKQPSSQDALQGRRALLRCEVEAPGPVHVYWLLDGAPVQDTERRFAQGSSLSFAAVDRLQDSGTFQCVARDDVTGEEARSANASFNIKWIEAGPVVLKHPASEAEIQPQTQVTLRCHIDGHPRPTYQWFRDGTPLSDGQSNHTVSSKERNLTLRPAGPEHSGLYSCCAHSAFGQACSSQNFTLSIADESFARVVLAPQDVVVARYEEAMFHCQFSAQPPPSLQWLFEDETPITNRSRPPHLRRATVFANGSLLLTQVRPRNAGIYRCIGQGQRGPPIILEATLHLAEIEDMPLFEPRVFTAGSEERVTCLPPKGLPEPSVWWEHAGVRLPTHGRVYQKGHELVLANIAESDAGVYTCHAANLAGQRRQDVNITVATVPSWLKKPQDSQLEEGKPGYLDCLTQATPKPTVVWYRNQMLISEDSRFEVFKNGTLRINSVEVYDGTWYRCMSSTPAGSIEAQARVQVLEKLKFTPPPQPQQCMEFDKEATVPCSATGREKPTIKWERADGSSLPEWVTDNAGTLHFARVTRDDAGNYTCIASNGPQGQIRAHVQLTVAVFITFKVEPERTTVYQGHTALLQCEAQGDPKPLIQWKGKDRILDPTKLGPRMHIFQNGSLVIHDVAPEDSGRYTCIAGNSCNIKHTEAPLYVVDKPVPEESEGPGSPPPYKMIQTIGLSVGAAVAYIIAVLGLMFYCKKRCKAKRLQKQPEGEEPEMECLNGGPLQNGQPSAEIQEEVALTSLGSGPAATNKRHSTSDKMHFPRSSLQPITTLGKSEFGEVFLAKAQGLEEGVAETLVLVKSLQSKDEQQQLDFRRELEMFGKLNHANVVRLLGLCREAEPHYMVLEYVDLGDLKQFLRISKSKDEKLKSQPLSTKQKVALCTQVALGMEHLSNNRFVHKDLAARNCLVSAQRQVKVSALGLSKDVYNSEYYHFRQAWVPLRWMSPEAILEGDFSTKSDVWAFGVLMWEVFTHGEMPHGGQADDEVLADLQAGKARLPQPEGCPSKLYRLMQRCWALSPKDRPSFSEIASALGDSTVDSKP


molecular target: T1, Human PTK7; test: cell-based or functional assay

Row | Binder | Internalization, FOW @ 25 nM (fold over the wildtype, parental antibody)
1 | MYT11257 (antibody, V domains shown) VH: EVQLVESGGGLVQPGGSLRLSCTASGIDHSRYSMGWVRQAPGKGLEWVGIISYGGSTYYASWAKGRFTISRDTSKNTVYLQMNSLRAEDTAVYFCARVGYPGYSGYGYAFDAFDPWGQGTLVTVSS VL: EIVMTQSPSTLSASVGDRVIITCQSSKSVYNDNWLSWYQQKPGKAPKLLIYGASTLASGVPSRFSGSGSGAEFTLTISSLQPDDFATYYCAGGYSSSSDNGFGQGTKLTVL | 1.11 fold over parental antibody
2 | MYT11271 (antibody, V domains shown) VH: EVQLVESGGGLVQPGGSLRLSCTASGIDLSRYSMGWVRQAPGKGLEWVGIISYGGSHYYASWAKGRFTISRDTSKNTVYLQMNSLRAEDTAVYFCARVGYPGYSGYGYAFDAFDPWGQGTLVTVSS VL: EIVMTQSPSTLSASVGDRVIITCQSSKSVYNDNWLSWYQQKPGKAPKLLIYGASTLASGVPSRFSGSGSGAEFTLTISSLQPDDFATYYCAGGYSSSSDNGFGQGTKLTVL | 1.57 fold over parental antibody
3 | MYT11282 (antibody, V domains shown) VH: EVQLVESGGGLVQPGGSLRLSCTASGIDLSRYSMGWVRQAPGKGLEWVGIISYGGSTYYASWAKGRFTISRDTSKNTVYLQMNSLRAEDTAVYFCARHGYPGYSGYGYAFDAFDPWGQGTLVTVSS VL: EIVMTQSPSTLSASVGDRVIITCQSSKSVYNDNWLSWYQQKPGKAPKLLIYGASTLASGVPSRFSGSGSGAEFTLTISSLQPDDFATYYCAGGYSSSSDNGFGQGTKLTVL | 1.68 fold over parental antibody
4 | MYT11259 (antibody, V domains shown) VH: EVQLVESGGGLVQPGGSLRLSCTASGIDLSHYSMGWVRQAPGKGLEWVGIISYGGSTYYASWAKGRFTISRDTSKNTVYLQMNSLRAEDTAVYFCARVGYPGYSGYGYAFDAFDPWGQGTLVTVSS VL: EIVMTQSPSTLSASVGDRVIITCQSSKSVYNDNWLSWYQQKPGKAPKLLIYGASTLASGVPSRFSGSGSGAEFTLTISSLQPDDFATYYCAGGYSSSSDNGFGQGTKLTVL | 1.14 fold over parental antibody
5 | MYT11281 (antibody, V domains shown) VH: EVQLVESGGGLVQPGGSLRLSCTASGIDLSRYSMGWVRQAPGKGLEWVGIISYGGSTYYASWAKGRFTISRDTSKNTVYLQMNSLRAEDTAVYFCAHVGYPGYSGYGYAFDAFDPWGQGTLVTVSS VL: EIVMTQSPSTLSASVGDRVIITCQSSKSVYNDNWLSWYQQKPGKAPKLLIYGASTLASGVPSRFSGSGSGAEFTLTISSLQPDDFATYYCAGGYSSSSDNGFGQGTKLTVL | 1.11 fold over parental antibody
6 | MYT11264 (antibody, V domains shown) VH: EVQLVESGGGLVQPGGSLRLSCTASGIDLSRYSMGWVRQAPGKGLEWVGHISYGGSTYYASWAKGRFTISRDTSKNTVYLQMNSLRAEDTAVYFCARVGYPGYSGYGYAFDAFDPWGQGTLVTVSS VL: EIVMTQSPSTLSASVGDRVIITCQSSKSVYNDNWLSWYQQKPGKAPKLLIYGASTLASGVPSRFSGSGSGAEFTLTISSLQPDDFATYYCAGGYSSSSDNGFGQGTKLTVL | 1.13 fold over parental antibody
7 | MYT11284 (antibody, V domains shown) VH: EVQLVESGGGLVQPGGSLRLSCTASGIDLSRYSMGWVRQAPGKGLEWVGIISYGGSTYYASWAKGRFTISRDTSKNTVYLQMNSLRAEDTAVYFCARVGHPGYSGYGYAFDAFDPWGQGTLVTVSS VL: EIVMTQSPSTLSASVGDRVIITCQSSKSVYNDNWLSWYQQKPGKAPKLLIYGASTLASGVPSRFSGSGSGAEFTLTISSLQPDDFATYYCAGGYSSSSDNGFGQGTKLTVL | 1.51 fold over parental antibody
8 | MYT11261 (antibody, V domains shown) VH: EVQLVESGGGLVQPGGSLRLSCTASGIDLSRYHMGWVRQAPGKGLEWVGIISYGGSTYYASWAKGRFTISRDTSKNTVYLQMNSLRAEDTAVYFCARVGYPGYSGYGYAFDAFDPWGQGTLVTVSS VL: EIVMTQSPSTLSASVGDRVIITCQSSKSVYNDNWLSWYQQKPGKAPKLLIYGASTLASGVPSRFSGSGSGAEFTLTISSLQPDDFATYYCAGGYSSSSDNGFGQGTKLTVL | 1.24 fold over parental antibody
9 | MYT11280 (antibody, V domains shown) VH: EVQLVESGGGLVQPGGSLRLSCTASGIDLSRYSMGWVRQAPGKGLEWVGIISYGGSTYYASWAKGRFTISRDTSKNTVYLQMNSLRAEDTAVYFCHRVGYPGYSGYGYAFDAFDPWGQGTLVTVSS VL: EIVMTQSPSTLSASVGDRVIITCQSSKSVYNDNWLSWYQQKPGKAPKLLIYGASTLASGVPSRFSGSGSGAEFTLTISSLQPDDFATYYCAGGYSSSSDNGFGQGTKLTVL | 1.16 fold over parental antibody
10 | MYT11190 (antibody, V domains shown) VH: EVQLVESGGGLVQPGGSLRLSCTASGIDLSSYVMGWVRQAPGKGLEWVGHIYGGGGTYYATWARGRFTISRDTSKNTVYLQMNSLRAEDTAVYFCARAAADFYFNLWGQGTLVTVSS VL: EIVMTQSPSTLSASVGDRVIITCQASQSISSYLAWYQQKPGKAPKLLIYDISDLASGVPSRFSGSGSGAEFTLTISSLQPDDFATYYCQSYYWISNSGAAFGQGTKLTVL | 1.32 fold over parental antibody
11 | MYT11211 (antibody, V domains shown) VH: EVQLVESGGGLVQPGGSLRLSCTASGIDLSSYVMGWVRQAPGKGLEWVGYIYGGGGTYYATWARGRFTISRDTSKNTVYLQMNSLRAEDTAVYFCARAAAHFYFNLWGQGTLVTVSS VL: EIVMTQSPSTLSASVGDRVIITCQASQSISSYLAWYQQKPGKAPKLLIYDISDLASGVPSRFSGSGSGAEFTLTISSLQPDDFATYYCQSYYWISNSGAAFGQGTKLTVL | 1.14 fold over parental antibody
12 | MYT11212 (antibody, V domains shown) VH: EVQLVESGGGLVQPGGSLRLSCTASGIDLSSYVMGWVRQAPGKGLEWVGYIYGGGGTYYATWARGRFTISRDTSKNTVYLQMNSLRAEDTAVYFCARAAADHYFNLWGQGTLVTVSS VL: EIVMTQSPSTLSASVGDRVIITCQASQSISSYLAWYQQKPGKAPKLLIYDISDLASGVPSRFSGSGSGAEFTLTISSLQPDDFATYYCQSYYWISNSGAAFGQGTKLTVL | 1.23 fold over parental antibody
13 | MYT11232 (antibody, V domains shown) VH: EVQLVESGGGLVQPGGSLRLSCTASGIDLSSYVMGWVRQAPGKGLEWVGYIYGGGGTYYATWARGRFTISRDTSKNTVYLQMNSLRAEDTAVYFCARAAADFYFNLWGQGTLVTVSS VL: EIVMTQSPSTLSASVGDRVIITCQASQSISSYLAWYQQKPGKAPKLLIYDHSDLASGVPSRFSGSGSGAEFTLTISSLQPDDFATYYCQSYYWISNSGAAFGQGTKLTVL | 1.15 fold over parental antibody
14 | MYT11142 (antibody, V domains shown) VH: EVQLVESGGGLVQPGGSLRLSCTASGFSLSTYAMSWVRQAPGKGLEWVGMIYINDNTYYASWAKGRFTISRDTSKNTVYLQMNSLRAEDTAVYYCARDIGISYYIGVSLWGQGTLVTVSS VL: EIVMTQSPSTLSASVGDRVIITCQASQSIGTRLSWYQQKPGKAPKLLIYGASKLATGVPSRFSGSGSGAEFTLTISSLQPDDFATYYCLGEYSYTTTDGIAFGQGTKLTVL | 1.29 fold over parental antibody
15 | MYT11143 (antibody, V domains shown) VH: EVQLVESGGGLVQPGGSLRLSCTASGFSLSTYAMSWVRQAPGKGLEWVGMIYINANTYYASWAKGRFTISRDTSKNTVYLQMNSLRAEDTAVYFCARDIGISYYIGVSLWGQGTLVTVSS VL: EIVMTQSPSTLSASVGDRVIITCQASQSIGTRLSWYQQKPGKAPKLLIYGASKLATGVPSRFSGSGSGAEFTLTISSLQPDDFATYYCLGEYSYTTTDGIAFGQGTKLTVL | 1.61 fold over parental antibody
